We go through 40 variants from PMC13397619.

The labels stand for the following.
B1: NLV2 TCR alpha chain (CDR3α only) (parent)
chain: AGPMKTSYDKVI
B2: NLV2 TCR alpha chain (CDR3α only) (parent)
chain: AGPMKTSYDKVI
partner: NLVGMVATV

Variants of B1 are the subject of one test. Kind of test: T-Switch: Jurkat TCRβ−/− cells expressing a CDR3 saturation-mutagenesis library, stained with two peptide-HLA-A*02:01 tetramers (original and novel peptide) plus anti-CD3, FACS-sorted into four gates, gDNA sequenced. The note with it: with both tetramers (double-negative gate, binds neither): HLA-A*02:01 with … and with …, tetramers 1 µg/mL, 30 min on ice, SP, DP and SW gates expanded about 10 days between rounds ('two to three rounds of selection' in the Methods), gate DN: OPPOSITE: higher = more of the variant in the gate that binds neither peptide = LESS binding (or no expression; inferred). Fold enrichment of the CDR3 variant in one FACS gate of a two-tetram, unresolved parent, parent is a CDR3 fragment, scale: fold enrichment, numbering: sequential-on-construct, sequence starts at 1.
On to […] (CDR3 as printed); M4T derived by comparing it with the table's wild-type CDR3 AGPMKTSYDKVI, for which the enrichment was 0.518.
On the same count and under the same terms, the result for […] (CDR3 as printed); T6R derived by comparing it with the table's wild-type CDR3 AGPMKTSYDKVI reads 0.792; that for […] (CDR3 as printed); A1Y derived by comparing it with the table's wild-type CDR3 AGPMKTSYDKVI, 0.935; that for […] (CDR3 as printed); V11I derived by comparing it with the table's wild-type CDR3 AGPMKTSYDKVI, 0.74.
As to […] (CDR3 as printed); K10F derived by comparing it with the table's wild-type CDR3 AGPMKTSYDKVI, the enrichment worked out at 1.13.
Regarding […] (CDR3 as printed); S7T derived by comparing it with the table's wild-type CDR3 AGPMKTSYDKVI, the enrichment came to 0.968.
As to […] (CDR3 as printed); S7P derived by comparing it with the table's wild-type CDR3 AGPMKTSYDKVI, the enrichment worked out at 0.995.
Regarding […] (CDR3 as printed); V11G derived by comparing it with the table's wild-type CDR3 AGPMKTSYDKVI, the enrichment turned out to be 0.956.
[…] (CDR3 as printed); G2Y derived by comparing it with the table's wild-type CDR3 AGPMKTSYDKVI: the enrichment came out at 0.902.

The test is the same for the next values; noted with them: with both tetramers (double-positive gate): HLA-A*02:01 with … and with …, tetramers 1 µg/mL, 30 min on ice, SP, DP and SW gates expanded about 10 days between rounds ('two to three rounds of selection' in the Methods), gate DP: higher = more of the variant in the gate that binds both peptides. Fold enrichment of the CDR3 variant in one FACS gate of a two-tetramer stain. SP/DP/SW gates were expanded and re-sorted bef, unresolved parent, parent is a CDR3 fragment, scale: fold enrichment, numbering: sequential-on-construct, sequence starts at 1.
Regarding […] (CDR3 as printed); M4T derived by comparing it with the table's wild-type CDR3 AGPMKTSYDKVI, the enrichment worked out at 0.
Turning to […] (CDR3 as printed); T6R derived by comparing it with the table's wild-type CDR3 AGPMKTSYDKVI, the enrichment worked out at 0.
As to […] (CDR3 as printed); A1Y derived by comparing it with the table's wild-type CDR3 AGPMKTSYDKVI, the enrichment is 0.
Take […] (CDR3 as printed); V11I derived by comparing it with the table's wild-type CDR3 AGPMKTSYDKVI: the enrichment came out at 0.
Consider […] (CDR3 as printed); K10F derived by comparing it with the table's wild-type CDR3 AGPMKTSYDKVI, for which the enrichment is 0.
As for […] (CDR3 as printed); S7T derived by comparing it with the table's wild-type CDR3 AGPMKTSYDKVI, the enrichment was 0.
In the case of […] (CDR3 as printed); S7P derived by comparing it with the table's wild-type CDR3 AGPMKTSYDKVI, the enrichment is 0.
Regarding […] (CDR3 as printed); V11G derived by comparing it with the table's wild-type CDR3 AGPMKTSYDKVI, the enrichment was 0.
For the variant […] (CDR3 as printed); G2Y derived by comparing it with the table's wild-type CDR3 AGPMKTSYDKVI, the enrichment was 0.

In another test the parent is B2. Described as above. The note with it: with HLA-A*02:01 with peptide … (NLV 2-2, the original bait), tetramers 1 µg/mL, 30 min on ice, DP and SW gates expanded about 10 days between rounds ('two to three rounds of selection' in the Methods), gate SP: higher = more of the variant in the gate that binds the original peptide and not the novel one = retained original binding. Fold enrichment of the CDR3 variant in one FACS gate of a two-tetra, unresolved parent, parent is a CDR3 fragment, scale: fold enrichment, numbering: sequential-on-construct, sequence ….
For the variant […] (CDR3 as printed); G2P derived by comparing it with the table's wild-type CDR3 AGPMKTSYDKVI, the enrichment was 0.351.
For the variant […] (CDR3 as printed); S7G derived by comparing it with the table's wild-type CDR3 AGPMKTSYDKVI, the enrichment came to 0.
Turning to […] (CDR3 as printed); A1I derived by comparing it with the table's wild-type CDR3 AGPMKTSYDKVI, the enrichment turned out to be 0.473.
For […] (CDR3 as printed); A1G derived by comparing it with the table's wild-type CDR3 AGPMKTSYDKVI, the enrichment worked out at 0.
Turning to […] (CDR3 as printed); K10F derived by comparing it with the table's wild-type CDR3 AGPMKTSYDKVI, the enrichment amounted to 0.
As for […] (CDR3 as printed); I12P derived by comparing it with the table's wild-type CDR3 AGPMKTSYDKVI, the enrichment came to 0.
As to […] (CDR3 as printed); T6I derived by comparing it with the table's wild-type CDR3 AGPMKTSYDKVI, the enrichment was 9.21.
Consider […] (CDR3 as printed); D9Y derived by comparing it with the table's wild-type CDR3 AGPMKTSYDKVI, for which the enrichment is 0.
For the variant […] (CDR3 as printed); M4D derived by comparing it with the table's wild-type CDR3 AGPMKTSYDKVI, the enrichment turned out to be 0.
Regarding […] (CDR3 as printed); T6A derived by comparing it with the table's wild-type CDR3 AGPMKTSYDKVI, the enrichment worked out at 0.
[…] (CDR3 as printed); G2Y derived by comparing it with the table's wild-type CDR3 AGPMKTSYDKVI: the enrichment was 0.
Regarding […] (CDR3 as printed); G2A derived by comparing it with the table's wild-type CDR3 AGPMKTSYDKVI, the enrichment came to 0.952.
In the case of […] (CDR3 as printed); D9H derived by comparing it with the table's wild-type CDR3 AGPMKTSYDKVI, the enrichment came out at 0.283.
On to […] (CDR3 as printed); I12H derived by comparing it with the table's wild-type CDR3 AGPMKTSYDKVI, for which the enrichment stood at 0.
Still for that read-out and setting: the result for […] (CDR3 as printed); M4T derived by comparing it with the table's wild-type CDR3 AGPMKTSYDKVI reads 12.4; that for […] (CDR3 as printed); G2V derived by comparing it with the table's wild-type CDR3 AGPMKTSYDKVI, 0; that for […] (CDR3 as printed); M4A derived by comparing it with the table's wild-type CDR3 AGPMKTSYDKVI, 8.93.
Consider […] (CDR3 as printed); K10I derived by comparing it with the table's wild-type CDR3 AGPMKTSYDKVI, for which the enrichment stood at 0.
With […] (CDR3 as printed); D9W derived by comparing it with the table's wild-type CDR3 AGPMKTSYDKVI, the enrichment is 0.
Still for that read-out and setting: the result for […] (CDR3 as printed); D9N derived by comparing it with the table's wild-type CDR3 AGPMKTSYDKVI reads 0; that for […] (CDR3 as printed); D9I derived by comparing it with the table's wild-type CDR3 AGPMKTSYDKVI, 0; that for […] (CDR3 as printed); K5T derived by comparing it with the table's wild-type CDR3 AGPMKTSYDKVI, 4.91.
Same read-out and setting: the result for […] (CDR3 as printed); G2I derived by comparing it with the table's wild-type CDR3 AGPMKTSYDKVI reads 0.
Take […] (CDR3 as printed); I12E derived by comparing it with the table's wild-type CDR3 AGPMKTSYDKVI: the enrichment came out at 0.34.
For the variant […] (CDR3 as printed); I12M derived by comparing it with the table's wild-type CDR3 AGPMKTSYDKVI, the enrichment was determined as 0.
Regarding […] (CDR3 as printed); D9P derived by comparing it with the table's wild-type CDR3 AGPMKTSYDKVI, the enrichment worked out at 0.
With […] (CDR3 as printed); K5I derived by comparing it with the table's wild-type CDR3 AGPMKTSYDKVI, the enrichment was determined as 3.95.
Still for that read-out and setting: the result for […] (CDR3 as printed); K5H derived by comparing it with the table's wild-type CDR3 AGPMKTSYDKVI reads 4.24; that for […] (CDR3 as printed); A1M derived by comparing it with the table's wild-type CDR3 AGPMKTSYDKVI, 0.103; that for […] (CDR3 as printed); S7D derived by comparing it with the table's wild-type CDR3 AGPMKTSYDKVI, 0.
With […] (CDR3 as printed); S7Y derived by comparing it with the table's wild-type CDR3 AGPMKTSYDKVI, the enrichment stood at 0.
